B2: human ribonuclease inhibitor (natural protein, human (H. sapiens))
chain: MSLDIQSLDIQCEELSDARWAELLPLLQQCQVVRLDDCGLTEARCKDISSALRVNPALAELNLRSNELGDVGVHCVLQGLQTPSCKIQKLSLQNCCLTGAGCGVLSSTLRTLPTLQELHLSDNLLGDAGLQLLCEGLLDPQCRLEKLQLEYCSLSAASCEPLASVLRAKPDFKELTVSNNDINEAGVRVLCQGLKDSPCQLEALKLESCGVTSDNCRDLCGIVASKASLRELALGSNKLGDVGMAELCPGLLHPSSRLRTLWIWECGITAKGCGDLCRVLRAKESLKELSLAGNELGDEGARLLCETLLEPGCQLESLWVKSCSFTAACCSHFSSVLAQNRFLLELQISNNRLEDAGVRELCQGLGQPGSVLRVLWLADCDVSDSSCSSLAATLLANHSLRELDLSNNCLGDAGILQLVESVRQPGCLLEQLVLYDIYWSEEMEDRLQALEKDKPSLRVIS
B5: mouse ribonuclease inhibitor (natural protein, mouse (M. musculus))
chain: MSLDIQCEQLSDARWTELLPLIQQYEVVRLDDCGLTEVRCKDISSAVQANPALTELSLRTNELGDGGVGLVLQGLQNPTCKIQKLSLQNCGLTEAGCGILPGMLRSLSTLRELHLNDNPMGDAGLKLLCEGLQDPQCRLEKLQLEYCNLTATSCEPLASVLRVKADFKELVLSNNDLHEPGVRILCQGLKDSACQLESLKLENCGITAANCKDLCDVVASKASLQELDLSSNKLGNAGIAALCPGLLLPSCKLRTLWLWECDITAEGCKDLCRVLRAKQSLKELSLASNELKDEGARLLCESLLEPGCQLESLWIKTCSLTAASCPYFCSVLTKSRSLLELQMSSNPLGDEGVQELCKALSQPDTVLRELWLGDCDVTNSGCSSLANVLLANRSLRELDLSNNCMGGPGVLQLLESLKQPSCTLQQLVLYDIYWTNEVEEQLRALEEERPSLRIIS

Experiments:
[1] = biological target: chicken RNase A-1 (chicken (G. gallus))
[2] = biological target: anole RNase 1 (anole lizard (Anolis carolinensis))
[3] = biological target: B5; assay: fluorescence dissociation-rate assay
human RNase 1 = biological target: T1, human RNase 1 (human, UniProt P07998 29-156)
T1 sequence: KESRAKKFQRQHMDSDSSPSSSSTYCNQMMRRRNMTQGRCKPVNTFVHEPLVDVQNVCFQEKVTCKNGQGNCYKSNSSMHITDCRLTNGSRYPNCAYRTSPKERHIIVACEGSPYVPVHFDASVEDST

[4] = biological target: B2; assay: fluorescence dissociation-rate assay
bovine RNase A = biological target: T2, bovine RNase A (bovine, UniProt P61823 27-150)
T2 sequence (looked up): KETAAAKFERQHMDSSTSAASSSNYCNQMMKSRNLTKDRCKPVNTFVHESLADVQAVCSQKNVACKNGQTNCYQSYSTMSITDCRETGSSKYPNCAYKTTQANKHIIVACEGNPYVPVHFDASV

mouse RNase 1 = biological target: T3, mouse RNase 1 (mouse (M. musculus), UniProt P00683 26-149)
T3 sequence (looked up): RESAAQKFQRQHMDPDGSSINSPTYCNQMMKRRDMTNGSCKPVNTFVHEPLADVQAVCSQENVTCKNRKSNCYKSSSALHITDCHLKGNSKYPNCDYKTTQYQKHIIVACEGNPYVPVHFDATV

chicken ribonuclease inhibitor (natural protein)
stoichiometry N [1]: 1

anole ribonuclease inhibitor (natural protein)
stoichiometry N [2]: 1

B1: P19C human RNase 1, labeled with diethylfluorescein (DEFIA) (enzyme, UniProt P07998 29-156, looked up)
chain: KESRAKKFQRQHMDSDSSCSSSSTYCNQMMRRRNMTQGRCKPVNTFVHEPLVDVQNVCFQEKVTCKNGQGNCYKSNSSMHITDCRLTNGSRYPNCAYRTSPKERHIIVACEGSPYVPVHFDASVEDST
modifications: diethylfluorescein (DEFIA) on the introduced cysteine 19
binding result [3]: binds

B2
stoichiometry N (human RNase 1): 1

B3: S19C mouse RNase 1, labeled with diethylfluorescein (DEFIA) (enzyme, mouse (M. musculus), UniProt P00683 26-149, looked up)
chain: RESAAQKFQRQHMDPDGSCINSPTYCNQMMKRRDMTNGSCKPVNTFVHEPLADVQAVCSQENVTCKNRKSNCYKSSSALHITDCHLKGNSKYPNCDYKTTQYQKHIIVACEGNPYVPVHFDATV
modifications: diethylfluorescein (DEFIA) on the introduced cysteine 19
binding result [4]: binds

B4: bovine ribonuclease inhibitor (natural protein, bovine (B. taurus))
chain: MKLDIQCEQLSDARWTELLPLIQQYEVVRLDDCGLTEVRCKDIGSALQANASLTELSLRTNELGDGGVLLVLQGLQSPTCKIQKLSLQNCCLTEAGCGVLPGVLRSLPTLRELHLSDNPLGDAGLRLLCEGLLDPRCRLEKLQLEYCSLTAASCEPLAAVLRATRDLKELVVSNNDIGEAGVQALCRGLAESACQLETLKLENCGLTAANCKDLCGIVASQASLKDLDLGSNRLGDAGLAELCPGLLSPSSQLRTLWLWECDLTVSGCRELCRVLQAKEALKELSLAGNSLGDEGAQLLCESLLQPGCQLESLWVKSCGFTAACCQHFSSMLTQNKHLLELQLSSNPLGDAGVHVLCQALGQPGTVLRVLWVGDCELTNSSCGGLASLLLASPSLRELDLSNNGLGDPGVLQLLGSLEQPACSLEQLVLYDIYWTEAVDERLRAVEESKPGLRIIS
stoichiometry N (bovine RNase A): 1

B5
stoichiometry N (mouse RNase 1): 1

B6: A19C bovine RNase 1, labeled with diethylfluorescein (DEFIA) (enzyme, UniProt P61823 27-150, looked up)
chain: KETAAAKFERQHMDSSTSCASSSNYCNQMMKSRNLTKDRCKPVNTFVHESLADVQAVCSQKNVACKNGQTNCYQSYSTMSITDCRETGSSKYPNCAYKTTQANKHIIVACEGNPYVPVHFDASV
modifications: diethylfluorescein (DEFIA) on the introduced cysteine 19
binding result [4]: binds | binding result [3]: binds
